Results published in publication PMC6849348, “Theranostic Application of a Novel G-Quadruplex-Forming DNA Aptamer Targeting Malate Synthase of Mycobacterium tuberculosis”.

Tests used:
[1] = target: T1, malate synthase (MS, GlcB) (Mycobacterium tuberculosis, UniProt P9WK17 1-741); test: enzyme inhibition (mixed); glyoxylate, acetyl-CoA, 5 mM Mg2+; settings: protein: recombinant, tags: C-terminal His6
[2] = target: T1, malate synthase (MS, GlcB); test: enzyme inhibition; glyoxylate, acetyl-CoA, 5 mM Mg2+; settings: protein: recombinant, tags: C-terminal His6
[3] = target: T1, malate synthase (MS, GlcB); test: SPR; settings: protein: recombinant, tags: C-terminal His6
[4] = target: T1, malate synthase (MS, GlcB); test: ALISA; settings: protein: recombinant; tags: C-terminal His6
[5] = G4 parallel (CD, NMR), modeled as tetramer of 4 strands

T1 sequence (P9WK17 whole entry): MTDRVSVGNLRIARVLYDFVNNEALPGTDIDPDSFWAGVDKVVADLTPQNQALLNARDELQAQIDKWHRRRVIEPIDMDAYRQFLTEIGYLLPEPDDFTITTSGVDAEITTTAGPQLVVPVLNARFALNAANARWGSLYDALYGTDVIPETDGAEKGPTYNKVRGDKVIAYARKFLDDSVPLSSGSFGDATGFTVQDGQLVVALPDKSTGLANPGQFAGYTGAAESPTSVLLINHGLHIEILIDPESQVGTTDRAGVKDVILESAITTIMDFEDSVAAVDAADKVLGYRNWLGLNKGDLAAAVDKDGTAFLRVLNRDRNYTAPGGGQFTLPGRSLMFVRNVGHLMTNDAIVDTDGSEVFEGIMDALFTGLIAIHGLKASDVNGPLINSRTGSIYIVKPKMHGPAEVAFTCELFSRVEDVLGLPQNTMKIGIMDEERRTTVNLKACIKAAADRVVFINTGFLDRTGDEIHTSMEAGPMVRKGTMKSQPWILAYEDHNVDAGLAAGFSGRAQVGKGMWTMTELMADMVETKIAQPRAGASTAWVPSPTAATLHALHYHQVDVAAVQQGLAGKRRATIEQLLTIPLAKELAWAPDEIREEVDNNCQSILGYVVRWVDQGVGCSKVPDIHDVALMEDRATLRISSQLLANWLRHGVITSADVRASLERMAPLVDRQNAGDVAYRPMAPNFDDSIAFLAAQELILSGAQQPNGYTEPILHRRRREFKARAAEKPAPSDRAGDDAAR

With GGTGGTGGTGG (structured_DNA) [MS10-Trunc] as the binder, how does the Ki [1, 5] read?
Its Ki is 230 nM.

And the IC50 [2, 5]?
Its IC50 is 251 nM.

And the Kd [3, 5]?
Its Kd is 0.019 nM.

Does GGGGTGGTGG (structured_DNA) [MS10-Trunc dT3] bind [4]?
Result: binds

GGTGTGTTGACTGAGGGGGTGGGGTGGGTGGTGGTGGATATAGC (structured_DNA) [MS10] was tested. Which Ki ([1]; G4, parallel (CD)) did it give?
Its Ki is 270 nM.

And the IC50 ([2]; G4, parallel (CD))?
Its IC50 is 276 nM.

And the Kd ([3]; G4, parallel (CD))?
Its Kd is 12 nM.

Does GGTGGTGGGG (structured_DNA) [MS10-Trunc dT9] bind [4]?
Result: binds
